Results as given in US20240417482A1 (CONCEPT TO MEDICINE BIOTECH, published 2024).
Where two headings read alike, the source gives them in different places.

T1: cynomolgus 4-1BB-His protein (cynomolgus, UniProt A9YYE7 24-186)
T1 construct: Recombinant His-tagged protein; also called cyno 4-1BB antigen; not shown: His tag
T1 sequence: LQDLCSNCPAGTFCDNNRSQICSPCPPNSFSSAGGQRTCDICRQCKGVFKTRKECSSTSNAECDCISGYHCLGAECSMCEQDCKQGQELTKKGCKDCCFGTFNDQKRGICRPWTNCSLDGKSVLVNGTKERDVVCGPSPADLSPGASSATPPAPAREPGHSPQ

T2: mouse 4-1BB-His protein (mouse, UniProt P20334 24-187)
T2 construct: Recombinant His-tagged protein; also called mouse 4-1BB antigen; not shown: His tag
T2 sequence (looked up): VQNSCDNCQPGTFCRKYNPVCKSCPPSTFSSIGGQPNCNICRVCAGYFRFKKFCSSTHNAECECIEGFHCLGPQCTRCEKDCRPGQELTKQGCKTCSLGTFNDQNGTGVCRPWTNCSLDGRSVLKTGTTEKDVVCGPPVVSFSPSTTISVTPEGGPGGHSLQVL

T3: human OX40 protein (human, UniProt P43489 29-214, limits assumed)
T3 construct: Coated protein in ELISA
T3 sequence (looked up): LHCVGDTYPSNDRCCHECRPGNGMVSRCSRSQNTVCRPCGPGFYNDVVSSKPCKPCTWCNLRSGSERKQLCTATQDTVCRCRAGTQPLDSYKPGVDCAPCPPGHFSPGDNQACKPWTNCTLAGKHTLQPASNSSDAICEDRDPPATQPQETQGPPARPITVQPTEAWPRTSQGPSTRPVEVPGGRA


Assays:
human 4-1BB-His protein [1] = target: T4, human 4-1BB-His protein (human, UniProt Q07011 24-186); experiment: ELISA, plate coated with human 4-1BB-His at 0.5 ug/ml, anti-human IgG-HRP detection, OD450 (panel Human 4-1BB ELISA)
T4 construct: Recombinant His-tagged protein; also called human 4-1BB-his tag; recombinant 4-1BB protein; not shown: His tag
Target sequence in this assay (Q07011 24-186 limits assumed): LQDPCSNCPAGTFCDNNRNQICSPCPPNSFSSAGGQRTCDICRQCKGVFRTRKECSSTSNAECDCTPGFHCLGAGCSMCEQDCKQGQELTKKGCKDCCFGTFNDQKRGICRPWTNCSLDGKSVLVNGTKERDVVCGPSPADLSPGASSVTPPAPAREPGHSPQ

[2] = target: human 4-1BB expressed on cells (human) (UniProt Q07011); experiment: flow cytometry on HEK293-4-1BB cells, PE anti-human IgG, MFI
human 4-1BB-His protein [3] = target: T4, human 4-1BB-His protein; experiment: SPR, Biacore T200, antibody captured on Protein A chip, human 4-1BB-His as analyte
Protocol: The binding of the humanized antibodies to recombinant human 4-1BB protein (human 4-1BB-his tag) was tested by Biacore using a capture method. […] A serial dilution of human 4-1BB-his tag protein was injected over captured antibody for 30 s at a flow rate of 10 μl/min. The antigen was allowed to dissociate for 360 s. All the experiments were carried out on a Biacore T200.

human 4-1BB-His protein [4] = target: T4, human 4-1BB-His protein; experiment: as above; remark: listed apart in the source
Protocol: A serial dilution of human 4-1BB-his tag protein was injected over captured antibody for 30 s at a flow rate of 30 μl/min. The antigen was allowed to dissociate for 360 s. All the experiments were carried out on a Biacore T200. Data analysis was carried out using the Biacore T200 evaluation software.

[5] = target: T1, cynomolgus 4-1BB-His protein; experiment: ELISA, plate coated with cynomolgus 4-1BB-His, anti-human IgG-HRP
Protocol: (§1) Microtiter plates were coated with cynomolgus 4-1BB-His protein at 0.5 μg/ml in PBS, 100 μl/well at 4° C. overnight, then blocked with 150 μl/well of 1% BSA. […] The plates were washed with PBS/Tween and then incubated with Anti-Human IgG (H&L) (GOAT) Antibody Peroxidase Conjugated for 30 mins at 37° C. After washing, the plates were developed with TMB substrate and analyzed by spectrophotometer at OD 450 nm.

mouse 4-1BB-His protein [6] = target: T2, mouse 4-1BB-His protein; experiment: ELISA, plate coated with mouse 4-1BB-His 0.5 µg/ml
Protocol: as §1, with “mouse” for “cynomolgus”

human CD40 protein = target: T5, human CD40 protein (human, UniProt P25942 21-193); experiment: ELISA, plate coated with human CD40 0.5 µg/ml
T5 construct: Coated protein in ELISA
Protocol: as §1, with “Briefly, microtiter” for “Microtiter”, “human CD40 protein or human OX40” for “cynomolgus 4-1BB-His”

human OX40 protein = target: T3, human OX40 protein; experiment: ELISA, plate coated with human OX40 0.5 µg/ml
Protocol: as §1, with “Briefly, microtiter” for “Microtiter”, “human CD40 protein or human OX40” for “cynomolgus 4-1BB-His”

human 4-1BB-His protein [7] = target: T4, human 4-1BB-His protein; experiment: ELISA, plate coated with human 4-1BB-His, anti-human IgG-HRP
Protocol: as §1, with “Briefly, microtiter” for “Microtiter”, “human” for “cynomolgus”

mouse 4-1BB-His protein [8] = target: T2, mouse 4-1BB-His protein; experiment: ELISA, plate coated with mouse 4-1BB-His, anti-human IgG-HRP
Protocol: as §1, with “mouse” for “cynomolgus”

Chain of human 4-1BB expressed on cells (human) (Q07011 24-255): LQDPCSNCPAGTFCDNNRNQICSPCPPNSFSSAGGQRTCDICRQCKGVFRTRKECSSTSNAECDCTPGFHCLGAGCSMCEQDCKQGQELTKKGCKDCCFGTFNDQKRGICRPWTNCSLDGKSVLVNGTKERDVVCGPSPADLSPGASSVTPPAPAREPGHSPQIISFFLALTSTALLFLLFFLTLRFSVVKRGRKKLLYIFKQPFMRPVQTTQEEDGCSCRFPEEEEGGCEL
T5 sequence (P25942 21-193 limits assumed): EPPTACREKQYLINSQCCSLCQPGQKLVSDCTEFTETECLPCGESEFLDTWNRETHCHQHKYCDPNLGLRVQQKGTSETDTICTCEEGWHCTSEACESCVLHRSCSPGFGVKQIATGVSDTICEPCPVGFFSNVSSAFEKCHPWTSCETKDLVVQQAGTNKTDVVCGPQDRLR
Chain of Urelumab (antibody) (VH): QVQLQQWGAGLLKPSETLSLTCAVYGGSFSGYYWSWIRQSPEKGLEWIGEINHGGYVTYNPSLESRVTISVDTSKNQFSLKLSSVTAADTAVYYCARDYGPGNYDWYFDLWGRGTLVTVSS
Chain of Urelumab (antibody) (VL): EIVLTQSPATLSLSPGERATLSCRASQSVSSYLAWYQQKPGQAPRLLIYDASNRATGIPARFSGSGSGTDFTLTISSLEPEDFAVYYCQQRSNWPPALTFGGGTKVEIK

Row | Molecule | Kd (human 4-1BB-His protein [3]) [nM] | koff (human 4-1BB-His protein [3]) [s⁻¹] | kon (human 4-1BB-His protein [3]) [M⁻¹ s⁻¹] | Kd (human 4-1BB-His protein [4]) [nM] | koff (human 4-1BB-His protein [4]) [s⁻¹] | kon (human 4-1BB-His protein [4]) [M⁻¹ s⁻¹] | EC50 [5] [ng/mL] | binding result (human CD40 protein) | binding result (human OX40 protein) | EC50 (human 4-1BB-His protein [7]) [ng/mL] | further results
1 | Urelumab (antibody) |  |  |  |  |  |  |  |  |  |  | EC50 (read off the curve) (human 4-1BB-His protein [1]): 10 ng/mL; EC50 (read off the curve) [2]: 2 nM
2 | B31-V3 humanized antibody (VHH, Humanized VHH captured on a Protein A chip; also called B31 VHH-V3) VHH: QVQLVESGGGLVQPGGSLRLSCAASGDIFSIMFWYRQAPGKQREYVAHITSNGRTNYADSVTGRFTISRDNNKNTLYLQMNSLRAEDTAVYYCAADDATNTRTYWGQGTLVTVSS | 13.6 | 0.00716 | 526000 |  |  |  |  |  |  |  | 
3 | B31 chimeric mAb (VHH, Alpaca VHH tested as 'chimeric mAb' expressed in 293F cells, purified by protein G, detected with anti-human IgG and captured on Protein A; also called B31 chimeric antibody) VHH: QVQLVESGGGLVQAGGSLRLSCAASGDIFSIMFWYRQPQGKQREYVAHITSNGRTNYADSVTGRFTISRGNNDNTMYLQMDNLKPQDTAVYYCAADDATNTRTYWGQGTQVTVSS |  |  |  | 3.16 | 0.0048 | 1.52e+06 | 4.06 | no binding | no binding | 2.42 | binding result (mouse 4-1BB-His protein [6]): no binding; EC50 (read off the curve) [2]: 3 nM
4 | B31-V2 humanized antibody (VHH, Humanized VHH expressed in 293F cells and captured on a Protein A chip; also called B31 VHH-V2) VHH: QVQLVESGGGLVQPGGSLRLSCSASGDIFSIMFWYRQAPGKQREYVSHITSNGRTNYADSVTGRFTISRDNSKNTLYLQMNSLRAEDTAVYYCAADDATNTRTYWGQGTLVTVSS | 13.1 | 0.0068 | 517000 |  |  |  |  |  |  |  | 
5 | B31-V4 humanized antibody (VHH, Humanized VHH captured on a Protein A chip; also called B31 VHH-V4) VHH: QVQLVESGGGLVQPGGSLRLSCAASGDIFSIMFWYRQAPGKQREYVAHITSNGRTNYADSVTGRFTISRDNSKNTMYLQMDSLRAEDTAVYYCAADDATNTRTYWGQGTLVTVSS | 4.74 | 0.00545 | 1.15e+06 |  |  |  |  |  |  |  | 
6 | B16-V2 humanized antibody (VHH, Humanized VHH; also called B16 VHH-V2) VHH: EVQLVESGGGLVQPGGSLRLSCAASGFTFSYYAIGWFRQAPGKEREGVSCISSSDGSTYYADSVKGRFTISRDNSKNTLYLQMNSLRAEDTAVYYCATDTTTRCPIWSYYVESDYWGQGTLVTVSS | 1930 | 0.0898 | 46500 |  |  |  |  |  |  |  | 
7 | B16 chimeric mAb (VHH, Alpaca VHH tested as 'chimeric mAb') VHH: QVQLVESGGGLVQPGGSLRLSCAASGFTLDYYAIGWFRQAPGKEREGVSCISSSDGSTYYADSVKGRFTISRDNAKNTVYLQMNSLKPEDTAVYYCATDTTTRCPIWSYYVESDYWGQGTQVTVSS |  |  |  | 21.5 | 0.00739 | 343000 | 19.5 | no binding | no binding | 10.6 | EC50 (mouse 4-1BB-His protein [8]): 16.3 ng/mL

Second part, led by results:

Row | Kd (human 4-1BB-His protein [3]) [nM] | koff (human 4-1BB-His protein [3]) [s⁻¹] | kon (human 4-1BB-His protein [3]) [M⁻¹ s⁻¹] | Kd (human 4-1BB-His protein [4]) [nM] | koff (human 4-1BB-His protein [4]) [s⁻¹] | kon (human 4-1BB-His protein [4]) [M⁻¹ s⁻¹] | EC50 [5] [ng/mL] | binding result (human CD40 protein) | binding result (human OX40 protein) | EC50 (human 4-1BB-His protein [7]) [ng/mL] | Molecule | further results
8 | 4.97 | 0.00646 | 1.3e+06 |  |  |  |  |  |  |  | B31-V5 humanized antibody (VHH, Humanized VHH captured on a Protein A chip; also called B31 VHH-V5) VHH: QVQLVESGGGLVQPGGSLRLSCAASGDIFSIMFWYRQPQGKQREYVAHITSNGRTNYADSVTGRFTISRDNNKNTLYLQMDSLRAEDTAVYYCAADDATNTRTYWGQGTLVTVSS | 
9 | 6.58 | 0.00156 | 237000 |  |  |  |  |  |  |  | B31-V6 humanized antibody (VHH, Humanized VHH captured on a Protein A chip; also called B31 VHH-V6) VHH: QVQLVESGGGLVQPGGSLRLSCSASGDIFSIMFWYRQAPGKQREYVAHITSNGRTNYADSVTGRFTISRDNSKNTLYLQMNSLRAEDTAVYYCARDDATNTRTYWGQGTLVTVSS | 
10 |  |  |  | 21 | 0.00818 | 390000 | 3.54 | no binding | no binding | 2.06 | B125 chimeric mAb (VHH, Alpaca VHH tested as 'chimeric mAb') VHH: QVQLVESGGGLVQPGGSLRLSCAASGFAFSDYAIGWFRQAPGKEREGVSCISSSDGSTYYADSVKGRFTISRDNAKNTVYLQMNSLKPEDTAVYYCATDTTTRCPIWSYYVESDYWGQGTQVTVSS | EC50 (mouse 4-1BB-His protein [8]): 4.42 ng/mL; EC50 (read off the curve) [2]: 3 nM
11 | 3070 | 0.0266 | 8670 |  |  |  |  |  |  |  | B125-V2 humanized antibody (VHH, Humanized VHH; also called B125 VHH-V2) VHH: EVQLVESGGGLVQPGGSLRLSCAASGFAFSDYAIGWFRQAPGKEREGVSCISSSDGSTYYADSVKGRFTISRDNSKNTLYLQMNSLRAEDTAVYYCATDTTTRCPIWSYYVESDYWGQGTLVTVSS | 
12 | 765 | 0.041 | 53700 |  |  |  |  |  |  |  | B210-V2 humanized antibody (VHH, Humanized VHH; also called B210 VHH-V2) VHH: EVQLVESGGGLVQPGGSLRLSCAASGFTFSYYAIGWFRQAPGKEREGVSCISSSGRSTNYADSVKGRFTISRDNSKNTLYLQMNSLRAEDTAVYYCATDTTTRCPIWSNYVESDYWGQGTLVTVSS | 
13 | 2560 | 0.0408 | 15900 |  |  |  |  |  |  |  | B210-V3 humanized antibody (VHH, Humanized VHH; also called B210 VHH-V3) VHH: EVQLVESGGGLVQPGGSLRLSCAASGLTFSYYAIGWFRQAPGKEREGVSCISSSGRSTNYADSVKGRFTISRDNSKNTLYLQMNSLRAEDTAVYYCATDTTTRCPIWSNYVESDYWGQGTLVTVSS | 
14 |  |  |  | 0.526 | 0.000546 | 1.04e+06 | 4.81 | no binding | no binding | 5.2 | B164 chimeric mAb (VHH, Alpaca VHH tested as 'chimeric mAb') VHH: EVQLVESGGGLVQAGGSLRLSCAASGSIFSYMFWYRQPQGKQREYVAHITSGGRTNYADSVTGRFTISRGNNDNTMYLQMNNLKPEDTAVYYCAADDAVYTDRTYWGQGTQVTVSS | binding result (mouse 4-1BB-His protein [6]): no binding
15 |  |  |  | 90.4 | 0.00352 | 38900 | 3.91 | no binding | no binding | 2.51 | B210 chimeric mAb (VHH, Alpaca VHH tested as 'chimeric mAb') VHH: EVQLVESGGGLVQPGGSLRLSCAASGLSLDYYAIGWFRQAPGKEREGVSCISSSGRSTNYADSVKGRFTISRDNAKNTVYLQMNSLKPEDTADYYCATDTTTRCPIWSNYVESDYWGQGTQVTVSS | EC50 (mouse 4-1BB-His protein [8]): 402 ng/mL
